From patent US20230322924A1 (Janssen / Centocor, published 2023)

B1: BLX-3G8 (antibody, V domains shown)
VH: QVQLQQSGPGLVKPSQTLSLTCAISGDSVFNNNAAWTWIRQSPSRGLEWLGRTYYRSKWLYDYAVSVKSRITVNPDTSRNQFTLQLKSVTPEDTALYYCSRGYSSSFDYWGQGTLVTVSS
VL: QSALTQPASVSGSPGQSITISCTGTSSNIGTYKFVSWYQQHPDKAPKVLLYEVSKRPSGVSSRFSGSKSGNTASLTISGLQAEDQADYHCCSYAGSGTLLFGGGTKLTVL
notes: OmniRat hybridoma supernatant: human V regions on rat constant regions; also called V regions cloned as CD3B317 (CD3H223/CD3L124)
B2: PS3B60 (bispecific antibody, human IgG4 S228P, kappa, F234A L235A)
heavy: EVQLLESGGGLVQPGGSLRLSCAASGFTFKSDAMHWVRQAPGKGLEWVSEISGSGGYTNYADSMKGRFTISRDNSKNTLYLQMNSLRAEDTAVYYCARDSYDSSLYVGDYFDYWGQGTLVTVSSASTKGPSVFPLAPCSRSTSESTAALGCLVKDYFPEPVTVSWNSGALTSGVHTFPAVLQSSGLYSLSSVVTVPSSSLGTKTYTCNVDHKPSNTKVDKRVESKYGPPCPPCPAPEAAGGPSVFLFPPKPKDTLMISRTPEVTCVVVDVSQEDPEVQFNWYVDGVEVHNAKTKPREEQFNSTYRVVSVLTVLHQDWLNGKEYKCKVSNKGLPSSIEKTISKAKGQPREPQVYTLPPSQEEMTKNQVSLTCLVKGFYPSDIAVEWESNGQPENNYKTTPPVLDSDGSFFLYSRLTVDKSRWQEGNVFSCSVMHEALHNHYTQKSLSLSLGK
light: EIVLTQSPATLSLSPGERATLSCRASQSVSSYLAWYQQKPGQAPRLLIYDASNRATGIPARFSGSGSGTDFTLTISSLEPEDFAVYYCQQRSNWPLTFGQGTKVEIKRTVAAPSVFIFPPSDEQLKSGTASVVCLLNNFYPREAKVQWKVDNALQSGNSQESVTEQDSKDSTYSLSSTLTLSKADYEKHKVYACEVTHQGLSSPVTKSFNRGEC
VH: EVQLVESGGGLVQPGGSLRLSCAASGFTFNTYAMNWVRQAPGKGLEWVARIRSKYNNYATYYAASVKGRFTISRDDSKNSLYLQMNSLKTEDTAVYYCARHGNFGNSYVSWFAYWGQGTLVTVSS
VL: QTVVTQEPSLTVSPGGTVTLTCRSSTGAVTTSNYANWVQQKPGQAPRGLIGGTNKRAPGTPARFSGSLLGGKAALTLSGVQPEDEAEYYCALWYSNLWVFGGGTKLTVL
notes: IgG4 PAA; CD3 arm with F405L, R409K; also called PSMB344 x CD3B219
B3: PS3B72 (bispecific antibody, human IgG4 S228P, kappa, F234A L235A)
heavy: not shown
light: not shown
VH: B2 VH
VL: B2 VL
notes: IgG4 PAA; CD3 arm with F405L, R409K; also called PSMB360 x CD3B219
B4: PS3B74 (bispecific antibody, human IgG4 S228P, kappa, F234A L235A)
heavy: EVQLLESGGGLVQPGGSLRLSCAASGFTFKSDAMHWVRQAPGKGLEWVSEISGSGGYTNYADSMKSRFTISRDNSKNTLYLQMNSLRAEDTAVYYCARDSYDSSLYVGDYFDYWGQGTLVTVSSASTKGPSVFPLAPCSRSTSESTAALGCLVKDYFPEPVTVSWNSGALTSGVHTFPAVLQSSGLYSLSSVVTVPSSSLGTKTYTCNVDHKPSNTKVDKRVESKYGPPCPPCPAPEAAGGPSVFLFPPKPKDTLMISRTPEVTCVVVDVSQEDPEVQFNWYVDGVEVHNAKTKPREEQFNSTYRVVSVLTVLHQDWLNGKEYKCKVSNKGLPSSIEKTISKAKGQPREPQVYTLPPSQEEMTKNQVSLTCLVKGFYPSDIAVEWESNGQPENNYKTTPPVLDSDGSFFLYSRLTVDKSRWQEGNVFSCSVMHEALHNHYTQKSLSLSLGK
light: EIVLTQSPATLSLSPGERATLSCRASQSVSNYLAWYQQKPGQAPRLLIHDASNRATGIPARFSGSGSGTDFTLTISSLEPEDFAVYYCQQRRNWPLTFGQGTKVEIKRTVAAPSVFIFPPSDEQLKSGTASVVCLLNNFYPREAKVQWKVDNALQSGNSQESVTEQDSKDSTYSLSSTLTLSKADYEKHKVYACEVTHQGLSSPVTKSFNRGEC
VH: B2 VH
VL: B2 VL
notes: IgG4 PAA; CD3 arm with F405L, R409K; also called PSMB362 x CD3B219
B5: PS3B73 (bispecific antibody, human IgG4 S228P, kappa, F234A L235A)
heavy: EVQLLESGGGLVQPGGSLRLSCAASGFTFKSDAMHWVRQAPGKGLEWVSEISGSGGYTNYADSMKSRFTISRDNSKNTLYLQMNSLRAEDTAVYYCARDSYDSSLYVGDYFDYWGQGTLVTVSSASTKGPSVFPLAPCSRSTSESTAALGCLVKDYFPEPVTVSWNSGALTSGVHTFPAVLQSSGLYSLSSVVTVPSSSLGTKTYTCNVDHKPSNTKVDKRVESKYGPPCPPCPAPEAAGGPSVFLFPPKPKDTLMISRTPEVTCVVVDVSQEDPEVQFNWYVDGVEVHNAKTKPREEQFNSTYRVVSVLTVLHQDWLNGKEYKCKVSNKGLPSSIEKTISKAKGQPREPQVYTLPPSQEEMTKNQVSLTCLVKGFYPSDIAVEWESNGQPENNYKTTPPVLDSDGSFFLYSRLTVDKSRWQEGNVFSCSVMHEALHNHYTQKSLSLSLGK
light: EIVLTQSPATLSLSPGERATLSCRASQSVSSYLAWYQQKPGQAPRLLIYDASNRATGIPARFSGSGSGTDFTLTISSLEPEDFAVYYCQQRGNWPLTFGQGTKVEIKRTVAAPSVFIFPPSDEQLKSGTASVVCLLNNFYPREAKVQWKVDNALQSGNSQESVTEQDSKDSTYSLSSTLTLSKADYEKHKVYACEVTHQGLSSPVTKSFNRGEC
VH: B2 VH
VL: B2 VL
notes: IgG4 PAA; CD3 arm with F405L, R409K; also called PSMB361 x CD3B219
B6: PS3B61 (bispecific antibody, human IgG4 S228P, kappa, F234A L235A)
heavy: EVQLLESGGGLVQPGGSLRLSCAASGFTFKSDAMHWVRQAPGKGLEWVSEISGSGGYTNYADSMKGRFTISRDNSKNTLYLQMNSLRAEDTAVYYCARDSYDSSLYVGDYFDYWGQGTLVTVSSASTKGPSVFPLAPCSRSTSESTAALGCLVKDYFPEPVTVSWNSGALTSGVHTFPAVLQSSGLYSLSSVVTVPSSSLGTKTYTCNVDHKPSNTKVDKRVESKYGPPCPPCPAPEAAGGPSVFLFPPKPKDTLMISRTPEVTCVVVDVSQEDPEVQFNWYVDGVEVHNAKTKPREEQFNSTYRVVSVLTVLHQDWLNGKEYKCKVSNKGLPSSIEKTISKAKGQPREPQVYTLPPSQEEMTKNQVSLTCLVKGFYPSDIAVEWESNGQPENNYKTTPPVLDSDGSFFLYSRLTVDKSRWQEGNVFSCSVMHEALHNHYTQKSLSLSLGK
light: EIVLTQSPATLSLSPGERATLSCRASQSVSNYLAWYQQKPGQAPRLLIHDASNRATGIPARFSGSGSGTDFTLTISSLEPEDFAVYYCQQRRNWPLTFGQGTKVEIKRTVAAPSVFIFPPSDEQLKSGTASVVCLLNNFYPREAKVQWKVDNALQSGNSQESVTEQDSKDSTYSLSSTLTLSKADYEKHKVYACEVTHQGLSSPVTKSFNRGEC
VH: B2 VH
VL: B2 VL
notes: IgG4 PAA; CD3 arm with F405L, R409K; also called PSMB345 x CD3B219
B7: PS3B64 (bispecific antibody, human IgG4 S228P, kappa, F234A L235A)
heavy: not shown
light: not shown
VH: B2 VH
VL: B2 VL
notes: IgG4 PAA; CD3 arm with F405L, R409K; also called PSMB349 x CD3B219
B8: PS3B75 (bispecific antibody, human IgG4 S228P, kappa, F234A L235A)
heavy: not shown
light: not shown
VH: B2 VH
VL: B2 VL
notes: IgG4 PAA; CD3 arm with F405L, R409K; also called PSMB363 x CD3B219
B9: PS3B63 (bispecific antibody, human IgG4 S228P, kappa, F234A L235A)
heavy: not shown
light: not shown
VH: B2 VH
VL: B2 VL
notes: IgG4 PAA; CD3 arm with F405L, R409K; also called PSMB347 x CD3B219
B10: PS3B62 (bispecific antibody, human IgG4 S228P, kappa, F234A L235A)
heavy: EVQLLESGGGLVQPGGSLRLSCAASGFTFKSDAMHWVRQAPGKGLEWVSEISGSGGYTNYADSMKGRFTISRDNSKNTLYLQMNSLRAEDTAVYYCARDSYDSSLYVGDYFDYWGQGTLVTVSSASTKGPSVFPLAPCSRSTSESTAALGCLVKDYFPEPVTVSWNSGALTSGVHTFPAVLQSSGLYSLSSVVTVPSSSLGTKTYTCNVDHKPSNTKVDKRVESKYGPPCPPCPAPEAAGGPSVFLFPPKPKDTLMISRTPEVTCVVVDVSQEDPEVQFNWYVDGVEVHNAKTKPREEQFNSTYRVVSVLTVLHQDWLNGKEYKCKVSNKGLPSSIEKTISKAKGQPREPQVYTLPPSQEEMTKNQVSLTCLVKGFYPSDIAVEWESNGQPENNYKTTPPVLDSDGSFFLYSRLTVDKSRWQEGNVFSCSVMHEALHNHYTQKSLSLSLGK
light: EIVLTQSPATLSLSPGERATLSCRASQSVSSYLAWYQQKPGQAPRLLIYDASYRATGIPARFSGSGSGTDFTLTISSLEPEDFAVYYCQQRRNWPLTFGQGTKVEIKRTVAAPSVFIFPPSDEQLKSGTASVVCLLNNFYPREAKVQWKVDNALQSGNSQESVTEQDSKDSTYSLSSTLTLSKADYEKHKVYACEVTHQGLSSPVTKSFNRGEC
VH: B2 VH
VL: B2 VL
notes: IgG4 PAA; CD3 arm with F405L, R409K; also called PSMB346 x CD3B219
B11: PS3B70 (bispecific antibody, human IgG4 S228P, kappa, F234A L235A)
heavy: not shown
light: not shown
VH: B2 VH
VL: B2 VL
notes: IgG4 PAA; CD3 arm with F405L, R409K; also called PSMB358 x CD3B219
B12: PS3B71 (bispecific antibody, human IgG4 S228P, kappa, F234A L235A)
heavy: not shown
light: not shown
VH: B2 VH
VL: B2 VL
notes: IgG4 PAA; CD3 arm with F405L, R409K; also called PSMB359 x CD3B219
B13: PS3B27 (bispecific antibody)
chain 1: not shown
chain 2: not shown
chain 3: EVQLVESGGGLVQPGGSLRLSCAASGFTFNTYAMNWVRQAPGKGLEWVARIRSKYNNYATYYAASVKGRFTISRDDSKNSLYLQMNSLKTEDTAVYYCARHGNFGNSYVSWFAYWGQGTLVTVSSASTKGPSVFPLAPCSRSTSESTAALGCLVKDYFPEPVTVSWNSGALTSGVHTFPAVLQSSGLYSLSSVVTVPSSSLGTKTYTCNVDHKPSNTKVDKRVESKYGPPCPPCPAPEAAGGPSVFLFPPKPKDTLMISRTPEVTCVVVDVSQEDPEVQFNWYVDGVEVHNAKTKPREEQFNSTYRVVSVLTVLHQDWLNGKEYKCKVSNKGLPSSIEKTISKAKGQPREPQVYTLPPSQEEMTKNQVSLTCLVKGFYPSDIAVEWESNGQPENNYKTTPPVLDSDGSFLLYSKLTVDKSRWQEGNVFSCSVMHEALHNHYTQKSLSLSLGK
chain 4: QTVVTQEPSLTVSPGGTVTLTCRSSTGAVTTSNYANWVQQKPGQAPRGLIGGTNKRAPGTPARFSGSLLGGKAALTLSGVQPEDEAEYYCALWYSNLWVFGGGTKLTVLGQPKAAPSVTLFPPSSEELQANKATLVCLISDFYPGAVTVAWKADSSPVKAGVETTTPSKQSNNKYAASSYLSLTPEQWKSHRSYSCQVTHEGSTVEKTVAPTECS
B14: PS3B84 (bispecific antibody, human IgG4 S228P, kappa, lambda, F234A L235A)
heavy 1: not shown
light 1: not shown
heavy 2: QVQLQQSGPRLVRPSQTLSLTCAISGDSVFNNNAAWSWIRQSPSRGLEWLGRTYYRSKWLYDYAVSVKSRITVNPDTSRNQFTLQLNSVTPEDTALYYCARGYSSSFDYWGQGTLVTVSSASTKGPSVFPLAPCSRSTSESTAALGCLVKDYFPEPVTVSWNSGALTSGVHTFPAVLQSSGLYSLSSVVTVPSSSLGTKTYTCNVDHKPSNTKVDKRVESKYGPPCPPCPAPEAAGGPSVFLFPPKPKDTLMISRTPEVTCVVVDVSQEDPEVQFNWYVDGVEVHNAKTKPREEQFNSTYRVVSVLTVLHQDWLNGKEYKCKVSNKGLPSSIEKTISKAKGQPREPQVYTLPPSQEEMTKNQVSLTCLVKGFYPSDIAVEWESNGQPENNYKTTPPVLDSDGSFLLYSKLTVDKSRWQEGNVFSCSVMHEALHNHYTQKSLSLSLGK
light 2: QSALTQPASVSGSPGQSITISCTGTSSNIGTYKFVSWYQQHPDKAPKVLLYEVSKRPSGVSSRFSGSKSGNTASLTISGLQAEDQADYHCVSYAGSGTLLFGGGTKLTVLGQPKAAPSVTLFPPSSEELQANKATLVCLISDFYPGAVTVAWKADSSPVKAGVETTTPSKQSNNKYAASSYLSLTPEQWKSHRSYSCQVTHEGSTVEKTVAPTECS
notes: IgG4 PAA; also called PSMB344 x CD3B376
B15: PS3B81 (bispecific antibody, human IgG4 S228P, kappa, lambda, F234A L235A)
heavy 1: not shown
light 1: not shown
heavy 2: B14 heavy 2
light 2: B14 light 2
notes: IgG4 PAA; also called PSMB361 x CD3B376
B16: PS3B77 (bispecific antibody, human IgG4 S228P, kappa, lambda, F234A L235A)
heavy 1: not shown
light 1: not shown
heavy 2: B14 heavy 2
light 2: B14 light 2
notes: IgG4 PAA; also called PSMB349 x CD3B376
B17: PS3B85 (bispecific antibody, human IgG4 S228P, kappa, lambda, F234A L235A)
heavy 1: not shown
light 1: not shown
heavy 2: B14 heavy 2
light 2: B14 light 2
notes: IgG4 PAA; also called PSMB345 x CD3B376
B18: PS3B82 (bispecific antibody, human IgG4 S228P, kappa, lambda, F234A L235A)
heavy 1: not shown
light 1: not shown
heavy 2: B14 heavy 2
light 2: B14 light 2
notes: IgG4 PAA; also called PSMB362 x CD3B376
B19: PS3B76 (bispecific antibody, human IgG4 S228P, kappa, lambda, F234A L235A)
heavy 1: not shown
light 1: not shown
heavy 2: B14 heavy 2
light 2: B14 light 2
notes: IgG4 PAA; also called PSMB358 x CD3B376
B20: PS3B80 (bispecific antibody, human IgG4 S228P, kappa, lambda, F234A L235A)
heavy 1: not shown
light 1: not shown
heavy 2: B14 heavy 2
light 2: B14 light 2
notes: IgG4 PAA; also called PSMB347 x CD3B376
B21: PS3B86 (bispecific antibody, human IgG4 S228P, kappa, lambda, F234A L235A)
heavy 1: not shown
light 1: not shown
heavy 2: B14 heavy 2
light 2: B14 light 2
notes: IgG4 PAA; also called PSMB346 x CD3B376
B22: PS3B78 (bispecific antibody, human IgG4 S228P, kappa, lambda, F234A L235A)
heavy 1: not shown
light 1: not shown
heavy 2: B14 heavy 2
light 2: B14 light 2
notes: IgG4 PAA; also called PSMB359 x CD3B376
B23: PS3B83 (bispecific antibody, human IgG4 S228P, kappa, lambda, F234A L235A)
heavy 1: not shown
light 1: not shown
heavy 2: B14 heavy 2
light 2: B14 light 2
notes: IgG4 PAA; also called PSMB363 x CD3B376
B24: PS3B79 (bispecific antibody, human IgG4 S228P, kappa, lambda, F234A L235A)
heavy 1: not shown
light 1: not shown
heavy 2: B14 heavy 2
light 2: B14 light 2
notes: IgG4 PAA; also called PSMB360 x CD3B376

Target: T1, human CD3 on human T cells (human, UniProt P07766 23-207)
T1 construct: Native TCR-CD3 complex on cells; also called primary human T cells; human pan T cells
T1 sequence (P07766 23-207 limits assumed): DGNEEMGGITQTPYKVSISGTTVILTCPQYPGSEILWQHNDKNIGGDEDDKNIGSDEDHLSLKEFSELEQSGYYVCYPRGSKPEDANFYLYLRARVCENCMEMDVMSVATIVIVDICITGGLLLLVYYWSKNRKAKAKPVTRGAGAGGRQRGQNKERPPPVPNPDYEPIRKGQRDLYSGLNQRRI
Assay: flow cytometry, Jurkat CD3+ (E6-1)

Binder | % positive | geomean
B1 | 77% | 215000 geometric mean fluorescence

Target: T2, human PSMA on cells (LNCaP) (human, UniProt Q04609 1-750)
T2 construct: whole, on cells; also called LNCaP cells
T2 sequence (Q04609 whole entry): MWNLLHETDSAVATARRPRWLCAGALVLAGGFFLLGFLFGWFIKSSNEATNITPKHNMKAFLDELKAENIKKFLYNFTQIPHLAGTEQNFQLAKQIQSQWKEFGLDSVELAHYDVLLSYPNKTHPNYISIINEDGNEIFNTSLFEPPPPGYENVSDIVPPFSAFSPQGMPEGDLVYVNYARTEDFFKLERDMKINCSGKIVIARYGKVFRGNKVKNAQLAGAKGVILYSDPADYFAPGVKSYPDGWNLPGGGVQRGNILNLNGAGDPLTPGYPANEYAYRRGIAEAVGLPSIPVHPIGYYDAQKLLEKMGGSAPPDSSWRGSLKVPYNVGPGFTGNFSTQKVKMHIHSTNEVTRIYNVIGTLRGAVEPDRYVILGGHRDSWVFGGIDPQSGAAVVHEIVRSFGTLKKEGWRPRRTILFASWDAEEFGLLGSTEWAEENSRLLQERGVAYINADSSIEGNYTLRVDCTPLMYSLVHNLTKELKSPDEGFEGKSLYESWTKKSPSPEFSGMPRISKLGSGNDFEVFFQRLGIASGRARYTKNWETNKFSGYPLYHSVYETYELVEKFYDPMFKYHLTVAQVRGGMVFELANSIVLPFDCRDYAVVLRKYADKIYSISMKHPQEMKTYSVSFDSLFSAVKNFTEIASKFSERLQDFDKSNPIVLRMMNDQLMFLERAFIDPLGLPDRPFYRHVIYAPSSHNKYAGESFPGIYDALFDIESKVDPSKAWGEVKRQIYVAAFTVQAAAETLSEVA
Assay: flow cytometry cell binding assay on LNCaP cells
Experimental: (§1) PSMA×CD3 bispecific antibodies were tested for binding to PSMA positive cell line, LNCAP, to PSMA negative cell line, PC3. To assess the binding capabilities of the PSMA bispecific antibodies, the cell-binding assay was utilized (described previously). Bispecific antibodies were normalized for protein concentration and then incubated with the same number of cells expressing either human or cyno PSMA. The MFI at each concentration was collected by flow cytometry and plotted as a function of concentration. Data was transformed via log 10 and then plotted. Nonlinear regression of binding curves was done to determine EC50s.

Binder | binding result | EC50 (read off the curve)
B2 | binds | 
B3 | binds | 
B4 | binds | 
B5 | binds | 
B6 | binds | 
B7 | binds | 
B8 | binds | 
B9 |  | ~2 nM
B10 | binds | 
B11 | binds | 
B12 |  | ~8 nM
B13 |  | ~6 nM

Target: T2, human PSMA on cells (LNCaP)
Assay: flow cytometry cell binding assay on LNCaP cells
Remark: another data set of the same source
Experimental: as §1

Binder | EC50 (read off the curve) | binding result
B13 | ~6 nM | 
B14 |  | binds
B15 |  | binds
B16 |  | binds
B17 |  | binds
B18 |  | binds
B19 |  | binds
B20 |  | binds
B21 |  | binds
B22 |  | binds
B23 |  | binds
B24 |  | binds

Target: T3, cynomolgus CD3e/d complex on cells transiently transfected with pcDNA3.1-CD3e/d-cyn-mix (cynomolgus, UniProt Q95LI5 22-198; Q95LI8 22-171)
T3 construct: Tagged screening constructs
T3 sequence (Q95LI5 22-198 limits assumed, chain 1 of 2): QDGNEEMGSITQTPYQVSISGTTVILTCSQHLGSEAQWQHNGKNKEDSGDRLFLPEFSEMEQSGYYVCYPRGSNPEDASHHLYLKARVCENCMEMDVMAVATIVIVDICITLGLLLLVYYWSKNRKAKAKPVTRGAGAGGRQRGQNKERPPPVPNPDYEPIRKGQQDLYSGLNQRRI
T3 sequence (Q95LI8 22-171 limits assumed, chain 2 of 2): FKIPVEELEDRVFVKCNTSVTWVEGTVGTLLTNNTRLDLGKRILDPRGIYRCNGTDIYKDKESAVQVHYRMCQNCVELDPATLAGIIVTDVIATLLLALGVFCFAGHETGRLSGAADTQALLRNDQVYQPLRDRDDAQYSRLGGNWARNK
Assay: CELISA, hybridoma supernatant
Experimental: (§2) Hybridoma supernatants from fusions BLW (with magnetic bead depletion of lymphocytes) and BLX (without magnetic bead depletion of lymphocytes) were analyzed a) by a cell-based ELISA (CELISA) on cells transiently transfected with human and cynomolgus cDNA cloned into screening vectors: pOPT-CD3e-hum-epsilon-TCE.OMT+pOPT-CD3d-hum-delta.OMT, 1:1 (pOPT-CD3e/d-hum-mix) and pcDNA3.1-CD3e-cyn-[…]+pcDNA3.1-CD3d-cyn-delta, 1:1 (pcDNA3.1-CD3e/d-cyn-mix). For CELISA negative control, non-transfected mammalian cells were incubated with hybridoma supernatants and detected with the secondary Bethyl antibody. For a CELISA transfection control, mammalian cells, transfected with the constructs described above, were detected with anti-tag antibody.

Binder | % positive | Rfu
B1 | 70% | 340 rfu

Target: T4, human CD3e/d complex on cells transiently transfected with pOPT-CD3e/d-hum-mix (human, UniProt P07766 23-126; P04234 22-171)
T4 construct: Tagged screening constructs
T4 sequence (P07766 23-126 limits assumed, chain 1 of 2): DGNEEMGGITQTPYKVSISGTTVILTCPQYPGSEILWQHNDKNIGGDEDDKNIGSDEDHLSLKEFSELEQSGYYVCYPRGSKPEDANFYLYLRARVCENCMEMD
T4 sequence (P04234 22-171 limits assumed, chain 2 of 2): as the sequence (Q95LI8 22-171 limits assumed, chain 2 of 2) above, with V5I, K15N, V20I, T32S, N33D, N34I, A64T, N74S, L83V, R141H counted along it
Assay: CELISA, hybridoma supernatant
Experimental: as §2

Binder | % positive | Rfu
B1 | 111% | 759 rfu
